Assay results as given in PMC6511263 (Nature, 2018).

Biological target: T1, SETD3 (SET domain protein 3) (human, UniProt Q86TU7)
T1 sequence: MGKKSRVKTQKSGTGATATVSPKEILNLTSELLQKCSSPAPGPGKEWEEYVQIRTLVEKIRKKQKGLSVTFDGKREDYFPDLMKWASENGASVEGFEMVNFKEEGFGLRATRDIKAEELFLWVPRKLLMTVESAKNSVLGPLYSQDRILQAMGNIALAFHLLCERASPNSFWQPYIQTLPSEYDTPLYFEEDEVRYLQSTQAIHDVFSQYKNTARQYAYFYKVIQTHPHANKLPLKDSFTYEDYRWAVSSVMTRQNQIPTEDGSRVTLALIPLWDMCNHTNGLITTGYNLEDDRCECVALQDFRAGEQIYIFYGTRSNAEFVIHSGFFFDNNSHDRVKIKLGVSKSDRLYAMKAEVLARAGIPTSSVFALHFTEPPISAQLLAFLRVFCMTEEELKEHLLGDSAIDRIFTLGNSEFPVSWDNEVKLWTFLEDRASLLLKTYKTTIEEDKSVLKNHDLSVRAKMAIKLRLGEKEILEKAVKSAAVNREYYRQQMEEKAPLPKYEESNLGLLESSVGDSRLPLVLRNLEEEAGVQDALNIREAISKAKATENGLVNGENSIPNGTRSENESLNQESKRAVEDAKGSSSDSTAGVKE
Assay: crystal structure

binding result: binds
Binder: TLKYPIEHGIVTNWD [Human beta-actin peptide (residues 66-80)]
